The source of these data is patent US12257281B2, “Hydrophilic antibody-drug conjugates” (priority 2014, dated 2025).

Square brackets hold non-standard residues; d marks the D form. Peptide text beside a SMILES is read from it. * marks the point of attachment. Dolaproine = CO[C@@H]([C@@H]1CCCN1)[C@@H](C)C(=O)O; Hexanoyl(6-maleimido) = O=C1C=CC(=O)N1CCCCCC(=O)*; Dil = CC[C@H](C)[C@H](NC)[C@@H](CC(=O)O)OC; NMeV = CN[C@H](C(=O)O)C(C)C

Data set [1] can be described thus: Hydrophobic Interaction Chromatography (HIC) of 8-loaded ADCs. It is filed as physicochemical. The following applies: for HIC RT (min) h1F6 8-loads: 8-loaded antibody drug conjugates with antibody h1F6, Table 2; for HIC retention time: ADCs containing the drug linkers as 8 loads, Table 1. The method, then: The hydrophilicity index is measured as the retention time of a conjugate to that of the corresponding unconjugated targeting agent (alone) under high performance liquid chromatography (HPLC) conditions, as further described herein. […] If a different hydrophobic interaction column and/or method is used, it can be calibrated using conjugates from Tables 2 as references to determine reference conjugate mobilities (elution times) on the selected column and/or method. The determined reference mobilities on the selected hydrophobic interaction column and/or method can then be used to calculate a hydrophilicity index of a test article (as would be determined following Example 3). For example, an auristatin T-Glu-Dpr-MA, an me-MMAF and an mc-vc-PABC-MMAE drug linkers can be used to form conjugates to use as references. In another example, an auristatin T-Glu-Dpr-MA-h1F6 ADC, an h1F6-mc-MMAF and an h1F6-mc-vc-PABC-MMAE ADC can be used as references.
Analysis of the ADCs was performed using Hydrophobic Interaction Chromatography (HIC). HIC is performed by running a linear gradient from 0-100% Mobile Phase B (MPB) where Mobile Phase A (MPA) consists of 1.5 M ammonium sulfate, 25 mM potassium phosphate, pH 7.0, and MPB consists of 75% 25 mM potassium phosphate, pH 7.0, 25% isopropanol. Separation was achieved using a Tosoh t-Butyl column (TSK-Gel Butyl-NPR 4.6×35 mm, PN: 14947) heated to 25° C. Test articles were prepared by diluting 70 μg of ADC into MPA such that the total salt concentration is greater than or equal to 1.0 M ammonium sulfate at a total volume of 100 μL. Samples were injected at 90 μL and eluted using a 12 minute gradient. Monitoring at λ=280 nm.

Data set [2] deals with 786-O tumors. The data set is described as follows: Single dose mouse xenograft studies, h1F6 ADCs. It is filed as in vivo. The following applies: FIG. 6. The source says:
786-O cells were obtained from American Type Culture Collection (ATCC, Manassas, VA) and propagated in culture conditions recommended by ATCC. To establish 786-O tumors, 5×10^6 cells were implanted into the right flank of athymic nu/nu female donor mice (Harlan, Indianapolis, IN). When donor tumors were approximately 500 mm^3, mice were euthanized and tumors were aseptically excised and ˜0.5×0.5 mm fragments were loaded into a sterilized 13-gauge trocar for implantation into nu/nu mice. When tumors reached ˜100 mm^3, mice were randomly allocated to treatment groups.
Experimental groups were treated via intraperitoneal injection with compounds at the dose and schedule indicated or alternatively left untreated. Tumors were measured periodically and volumes were calculated using the formula V=((L×W^2)/2). Animals were euthanized when tumors reached the volume of 1000 mm^3 or at the end of the study, whichever came first.
Tumor quadrupling times were chosen as time to endpoint (TTE), which was determined by using the non-liner regression analysis for exponential growth of each individual tumor growth data sets from each experimental animal. The median tumor quadrupling time was calculated based on the tumor volume at the beginning of treatment.
Statistical analysis was conducted using Prism (GraphPad) software for Windows. […]

Regarding “maleimidocaproyl-valine-citrulline-p-aminobenzyl-carbamoyl MMAF [mc-vc-PABC-MMAF]”, in data set [1], the “HIC RT (min) h1F6 8-loads” value is recorded as 8.2 min and the “HIC retention time” value is given as 8.2 min.

`CC[C@H](C)[C@@H]([C@@H](CC(=O)N1CCC[C@H]1[C@H](OC)[C@@H](C)C(=O)N[C@@H](Cc1ccccc1)C(=O)O)OC)N(C)C(=O)[C@@H](NC(=O)[C@H](C(C)C)N(C)C(=O)CCCCCN1C(=O)C=CC1=O)C(C)C` [mc-MMAF, maleimidocaproyl MMAF] ({Hexanoyl(6-maleimido)}-[NMeV]V[Dil][Dolaproine]F-OH): in data set [1], the “HIC RT (min) h1F6 8-loads” value was 7.0 min and the “HIC retention time” value was determined as 7.0 min. Turning to “maleimidocaproyl-valine-citrulline-p-aminobenzyl-carbamoyl MMAE [mc-vc-PABC-MMAE]”, in data set [1], the “HIC RT (min) h1F6 8-loads” value stood at 9.8 min and the “HIC retention time” value is given as 9.8 min.

B1: h1F6-me-vc-PABC-MMAF (conjugate, chains of the INN, looked up)
VH: QVQLVQSGAEVKKPGASVKVSCKASGYTFTNYGMNWVRQAPGQGLKWMGWINTYTGEPTYADAFKGRVTMTRDTSISTAYMELSRLRSDDTAVYYCARDYGDYGMDYWGQGTTVTVSS
VL: DIVMTQSPDSLAVSLGERATINCRASKSVSTSGYSFMHWYQQKPGQPPKLLIYLASNLESGVPDRFSGSGSGTDFTLTISSLQAEDVAVYYCQHSREVPWTFGQGTKVEIK
modifications: me-vc-PABC-MMAF drug conjugate
Take B1: in data set [2], the “activity of 8-loaded versus 4-loaded ADC” value was 4-loaded ADC gave better activity than the 8-loaded ADC.
